Test results reported in paper PMC9482650, “Quantitative fragmentomics allow affinity mapping of interactomes” (Nature Communications, 2022).

Columns and labels:
Test in all cases: holdup assay
Set-up in all cases: key: below the threshold = too weak to quantify, mostly under pKd 3.1 to 4
APBA3_1, O96018 = target: T1, APBA3_1, O96018
T1 sequence (O96018 389-490, limits assumed, looked up): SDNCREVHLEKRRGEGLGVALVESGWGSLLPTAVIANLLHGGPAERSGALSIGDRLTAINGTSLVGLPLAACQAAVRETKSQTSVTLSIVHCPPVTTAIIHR

CARD11, Q9BXL7 = target: T2, CARD11, Q9BXL7
T2 sequence (Q9BXL7 662-765, limits assumed, looked up): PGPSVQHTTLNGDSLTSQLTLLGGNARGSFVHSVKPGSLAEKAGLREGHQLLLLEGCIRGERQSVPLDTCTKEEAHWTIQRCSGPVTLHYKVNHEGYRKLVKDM

DFNB31_1, Q9P202 = target: T3, DFNB31_1, Q9P202
T3 sequence (Q9P202 135-233, limits assumed, looked up): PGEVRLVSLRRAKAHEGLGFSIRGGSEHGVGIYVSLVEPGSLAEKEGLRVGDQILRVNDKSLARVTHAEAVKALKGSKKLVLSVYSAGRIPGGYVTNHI

DLG2_2, Q15700 = target: DLG2_2, Q15700
Chain of DLG2_2, Q15700 (Q15700 189-283): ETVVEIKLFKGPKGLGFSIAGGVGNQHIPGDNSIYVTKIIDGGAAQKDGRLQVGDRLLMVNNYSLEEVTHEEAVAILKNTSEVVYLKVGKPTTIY

DVL3, Q92997 = target: T4, DVL3, Q92997
T4 sequence (Q92997 244-331, limits assumed, looked up): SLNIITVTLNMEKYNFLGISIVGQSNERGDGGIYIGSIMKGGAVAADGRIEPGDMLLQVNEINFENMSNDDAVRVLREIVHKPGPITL

GORASP1, Q9BQQ3 = target: GORASP1, Q9BQQ3
Chain of GORASP1, Q9BQQ3 (Q9BQQ3 1-208): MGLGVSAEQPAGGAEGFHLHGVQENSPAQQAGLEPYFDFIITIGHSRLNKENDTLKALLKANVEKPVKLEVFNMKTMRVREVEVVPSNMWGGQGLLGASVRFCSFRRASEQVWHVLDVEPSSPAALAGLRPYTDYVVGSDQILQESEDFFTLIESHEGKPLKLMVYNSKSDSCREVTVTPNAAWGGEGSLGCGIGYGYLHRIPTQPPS

GORASP2, Q9H8Y8 = target: GORASP2, Q9H8Y8
GRIP1_2, Q9Y3R0 = target: T5, GRIP1_2, Q9Y3R0
T5 sequence (Q9Y3R0 145-248, limits assumed, looked up): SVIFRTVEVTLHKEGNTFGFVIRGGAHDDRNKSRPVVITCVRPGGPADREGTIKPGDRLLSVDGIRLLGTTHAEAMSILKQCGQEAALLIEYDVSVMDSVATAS

GRIP2_3, Q9C0E4 = target: GRIP2_3, Q9C0E4
Chain of GRIP2_3, Q9C0E4 (Q9C0E4 238-339): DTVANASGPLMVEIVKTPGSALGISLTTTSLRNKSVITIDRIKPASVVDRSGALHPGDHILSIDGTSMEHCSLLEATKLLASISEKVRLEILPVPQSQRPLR

GRIP2_6, Q9C0E4 = target: GRIP2_6, Q9C0E4
Chain of GRIP2_6, Q9C0E4 (Q9C0E4 648-740): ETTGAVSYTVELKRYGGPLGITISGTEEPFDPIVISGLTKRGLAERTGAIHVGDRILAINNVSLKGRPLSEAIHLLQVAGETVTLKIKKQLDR

GRIP2_7, Q9C0E4 = target: GRIP2_7, Q9C0E4
Chain of GRIP2_7, Q9C0E4 (Q9C0E4 934-1023): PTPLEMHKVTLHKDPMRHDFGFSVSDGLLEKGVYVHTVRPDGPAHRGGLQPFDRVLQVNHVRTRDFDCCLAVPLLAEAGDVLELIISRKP

HTRA3, P83110 = target: T6, HTRA3, P83110
T6 sequence (P83110 354-453, limits assumed, looked up): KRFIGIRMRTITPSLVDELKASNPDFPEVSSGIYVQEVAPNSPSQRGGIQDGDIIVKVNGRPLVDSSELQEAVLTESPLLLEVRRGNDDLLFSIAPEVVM

Inadl_1, Q8NI35 = target: Inadl_1, Q8NI35
Chain of Inadl_1, Q8NI35 (Q8NI35 113-229): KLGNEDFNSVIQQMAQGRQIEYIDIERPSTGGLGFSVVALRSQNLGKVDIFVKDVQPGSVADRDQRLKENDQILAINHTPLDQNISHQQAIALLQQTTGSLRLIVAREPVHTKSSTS

Inadl_4, Q8NI35 = target: Inadl_4, Q8NI35
Chain of Inadl_4, Q8NI35 (Q8NI35 547-651): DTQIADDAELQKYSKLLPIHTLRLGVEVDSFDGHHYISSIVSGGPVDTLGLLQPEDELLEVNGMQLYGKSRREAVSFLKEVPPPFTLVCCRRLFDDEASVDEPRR

Inadl_9, Q8NI35 = target: Inadl_9, Q8NI35
Chain of Inadl_9, Q8NI35 (Q8NI35 1530-1615): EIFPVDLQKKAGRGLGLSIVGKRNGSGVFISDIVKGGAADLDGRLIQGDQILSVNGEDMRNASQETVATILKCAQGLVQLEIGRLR

LAP2, Q96RT1 = target: LAP2, Q96RT1
Chain of LAP2, Q96RT1 (Q96RT1 other isoform, or with tags, fused parts or gaps): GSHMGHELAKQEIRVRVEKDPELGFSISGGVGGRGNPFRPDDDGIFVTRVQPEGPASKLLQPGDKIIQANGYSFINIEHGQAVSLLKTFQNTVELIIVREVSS

LIN7A, O14910 = target: T7, LIN7A, O14910
T7 sequence (O14910 103-200, limits assumed, looked up): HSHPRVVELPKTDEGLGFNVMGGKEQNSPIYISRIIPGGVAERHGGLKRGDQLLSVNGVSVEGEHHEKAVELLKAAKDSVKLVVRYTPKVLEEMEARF

LNX2_2, Q8N448 = target: T8, LNX2_2, Q8N448
T8 sequence (Q8N448 334-432, limits assumed, looked up): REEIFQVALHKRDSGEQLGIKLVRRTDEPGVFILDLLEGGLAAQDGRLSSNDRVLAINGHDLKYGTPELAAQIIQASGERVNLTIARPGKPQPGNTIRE

MAGI1_1, Q96QZ7 = target: MAGI1_1, Q96QZ7
Chain of MAGI1_1, Q96QZ7 (Q96QZ7 1-106): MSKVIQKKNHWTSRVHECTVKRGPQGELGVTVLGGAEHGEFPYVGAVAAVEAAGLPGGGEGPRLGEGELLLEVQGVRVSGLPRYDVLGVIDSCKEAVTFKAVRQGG

MAGI2_5, Q86UL8 = target: MAGI2_5, Q86UL8
Chain of MAGI2_5, Q86UL8 (Q86UL8 915-1017): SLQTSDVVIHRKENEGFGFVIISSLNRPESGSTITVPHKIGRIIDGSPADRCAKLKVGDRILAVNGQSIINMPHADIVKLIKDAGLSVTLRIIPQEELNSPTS

MAGI2_6, Q86UL8 = target: MAGI2_6, Q86UL8
Chain of MAGI2_6, Q86UL8 (Q86UL8 1141-1229): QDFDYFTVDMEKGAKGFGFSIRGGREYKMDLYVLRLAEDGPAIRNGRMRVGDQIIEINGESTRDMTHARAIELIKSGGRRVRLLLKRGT

MPDZ_12, O75970 = target: T9, MPDZ_12, O75970
T9 sequence (O75970 1857-1958, limits assumed, looked up): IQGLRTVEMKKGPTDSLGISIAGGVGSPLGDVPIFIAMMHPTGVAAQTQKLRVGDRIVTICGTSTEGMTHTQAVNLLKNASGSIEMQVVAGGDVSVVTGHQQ

NHERF4_4, Q86UT5 = target: NHERF4_4, Q86UT5
Chain of NHERF4_4, Q86UT5 (Q86UT5 464-550): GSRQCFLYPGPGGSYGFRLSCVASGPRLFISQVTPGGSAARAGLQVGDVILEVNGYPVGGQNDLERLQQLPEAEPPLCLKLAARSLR

PDZD7_3, Q9H5P4 = target: T10, PDZD7_3, Q9H5P4
T10 sequence (Q9H5P4 857-944, limits assumed, looked up): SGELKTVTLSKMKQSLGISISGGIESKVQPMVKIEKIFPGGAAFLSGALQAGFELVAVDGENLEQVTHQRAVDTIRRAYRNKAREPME

PDZRN3_1, Q9UPQ7 = target: T11, PDZRN3_1, Q9UPQ7
T11 sequence (Q9UPQ7 244-349, limits assumed, looked up): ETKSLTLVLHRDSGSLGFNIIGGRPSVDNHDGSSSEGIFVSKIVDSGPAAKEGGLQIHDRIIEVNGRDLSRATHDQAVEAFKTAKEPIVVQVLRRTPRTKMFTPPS

SCRIB_3, Q14160 = target: SCRIB_3, Q14160
Chain of SCRIB_3, Q14160 (Q14160 999-1103): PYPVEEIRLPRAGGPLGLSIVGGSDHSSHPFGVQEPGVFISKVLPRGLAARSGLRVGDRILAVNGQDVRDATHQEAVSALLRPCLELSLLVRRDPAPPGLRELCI

TJP2_1, Q9UDY2 = target: TJP2_1, Q9UDY2
Chain of TJP2_1, Q9UDY2 (Q9UDY2 24-128): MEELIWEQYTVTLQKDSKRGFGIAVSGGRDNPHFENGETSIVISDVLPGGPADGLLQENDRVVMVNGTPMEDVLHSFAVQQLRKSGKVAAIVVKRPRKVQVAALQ

[1] = plain residues with an end cap or a label only (N-terminal biotin on a linker: ado-ado)
[2] = modified: acetyl on K at position -1 from the C-terminal residue

## LETREPTNTL [GRIP1, Q9Y3R0]
APBA3_1, O96018; [1]
  pKd: below the threshold
CARD11, Q9BXL7; [1]
  pKd: below the threshold
DFNB31_1, Q9P202; [1]
  pKd: below the threshold
DLG2_2, Q15700; [1]
  pKd: below the threshold
DVL3, Q92997; [1]
  pKd: below the threshold
GORASP1, Q9BQQ3; [1]
  pKd: below the threshold
GORASP2, Q9H8Y8; [1]
  pKd: below the threshold
GRIP1_2, Q9Y3R0; [1]
  pKd: below the threshold
GRIP2_3, Q9C0E4; [1]
  pKd: below the threshold
GRIP2_6, Q9C0E4; [1]
  pKd: below the threshold
GRIP2_7, Q9C0E4; [1]
  pKd: below the threshold
HTRA3, P83110; [1]
  pKd: below the threshold
Inadl_1, Q8NI35; [1]
  pKd: below the threshold
Inadl_4, Q8NI35; [1]
  pKd: below the threshold
Inadl_9, Q8NI35; [1]
  pKd: below the threshold
LAP2, Q96RT1; [1]
  pKd: below the threshold
LIN7A, O14910; [1]
  pKd: below the threshold
LNX2_2, Q8N448; [1]
  pKd: below the threshold
MAGI1_1, Q96QZ7; [1]
  pKd: below the threshold
MAGI2_5, Q86UL8; [1]
  pKd: below the threshold
MAGI2_6, Q86UL8; [1]
  pKd: below the threshold
MPDZ_12, O75970; [1]
  pKd: below the threshold
NHERF4_4, Q86UT5; [1]
  pKd: below the threshold
PDZD7_3, Q9H5P4; [1]
  pKd: below the threshold
PDZRN3_1, Q9UPQ7; [1]
  pKd: below the threshold
SCRIB_3, Q14160; [1]
  pKd: below the threshold
TJP2_1, Q9UDY2; [1]
  pKd: below the threshold

## TMQMSLKDLL [GLA, P06280]
APBA3_1, O96018; [1]
  pKd: below the threshold
CARD11, Q9BXL7; [1]
  pKd: below the threshold
DFNB31_1, Q9P202; [1]
  pKd: below the threshold
DLG2_2, Q15700; [1]
  pKd: 3.62
DVL3, Q92997; [1]
  pKd: 3.6
GORASP1, Q9BQQ3; [1]
  pKd: 3.61
GORASP2, Q9H8Y8; [1]
  pKd: 3.51
GRIP1_2, Q9Y3R0; [1]
  pKd: 3.5
GRIP2_3, Q9C0E4; [1]
  pKd: below the threshold
GRIP2_6, Q9C0E4; [1]
  pKd: below the threshold
GRIP2_7, Q9C0E4; [1]
  pKd: below the threshold
HTRA3, P83110; [1]
  pKd: below the threshold
Inadl_1, Q8NI35; [1]
  pKd: below the threshold
Inadl_4, Q8NI35; [1]
  pKd: below the threshold
Inadl_9, Q8NI35; [1]
  pKd: below the threshold
LAP2, Q96RT1; [1]
  pKd: below the threshold
LIN7A, O14910; [1]
  pKd: below the threshold
LNX2_2, Q8N448; [1]
  pKd: below the threshold
MAGI1_1, Q96QZ7; [1]
  pKd: below the threshold
MAGI2_5, Q86UL8; [1]
  pKd: below the threshold
MAGI2_6, Q86UL8; [1]
  pKd: below the threshold
MPDZ_12, O75970; [1]
  pKd: below the threshold
NHERF4_4, Q86UT5; [1]
  pKd: below the threshold
PDZD7_3, Q9H5P4; [1]
  pKd: below the threshold
PDZRN3_1, Q9UPQ7; [1]
  pKd: 3.49
SCRIB_3, Q14160; [1]
  pKd: below the threshold
TJP2_1, Q9UDY2; [1]
  pKd: below the threshold

## DEDQHTQITKV [PTEN_Ac, P60484]
APBA3_1, O96018; [2]
  pKd: below the threshold
CARD11, Q9BXL7; [2]
  pKd: below the threshold
DFNB31_1, Q9P202; [2]
  pKd: 3.68
DLG2_2, Q15700; [2]
  pKd: 4.37
DVL3, Q92997; [2]
  pKd: below the threshold
GORASP1, Q9BQQ3; [2]
  pKd: 4.04
GORASP2, Q9H8Y8; [2]
  pKd: 4.06
GRIP1_2, Q9Y3R0; [2]
  pKd: below the threshold
GRIP2_3, Q9C0E4; [2]
  pKd: below the threshold
GRIP2_6, Q9C0E4; [2]
  pKd: below the threshold
GRIP2_7, Q9C0E4; [2]
  pKd: below the threshold
HTRA3, P83110; [2]
  pKd: below the threshold
Inadl_1, Q8NI35; [2]
  pKd: 3.85
Inadl_4, Q8NI35; [2]
  pKd: below the threshold
Inadl_9, Q8NI35; [2]
  pKd: 3.67
LAP2, Q96RT1; [2]
  pKd: 3.93
LIN7A, O14910; [2]
  pKd: below the threshold
LNX2_2, Q8N448; [2]
  pKd: 5.03
MAGI1_1, Q96QZ7; [2]
  pKd: below the threshold
MAGI2_5, Q86UL8; [2]
  pKd: 4.88
MAGI2_6, Q86UL8; [2]
  pKd: 4.57
MPDZ_12, O75970; [2]
  pKd: below the threshold
NHERF4_4, Q86UT5; [2]
  pKd: below the threshold
PDZD7_3, Q9H5P4; [2]
  pKd: 5.82
PDZRN3_1, Q9UPQ7; [2]
  pKd: below the threshold
SCRIB_3, Q14160; [2]
  pKd: 3.74
TJP2_1, Q9UDY2; [2]
  pKd: 3.96
